The record followed here is PMC6927192, “Comparative phosphorylation map of Dishevelled 3 links phospho-signatures to biological outputs” (Cell Communication and Signaling : CCS, 2019).

Square brackets hold non-standard residues; d marks the D form. Ends that are not written are not given here. pS = N[C@@H](COP(=O)(O)O)C(=O)O

This test concerns the target T1, Human DVL2 PDZ domain (aa 265–361) (human, UniProt O14641 265-361).
T1 construct: Dishevelled 2 (DVL2), human, PDZ domain, residues 265-361; 15N-labelled for the NMR titration; The pET construct has a TEV cleavage site after the tags; also called wt PDZ; wildtype PDZ; source: E. coli BL21-DE3(RIL), purified
T1 sequence (looked up): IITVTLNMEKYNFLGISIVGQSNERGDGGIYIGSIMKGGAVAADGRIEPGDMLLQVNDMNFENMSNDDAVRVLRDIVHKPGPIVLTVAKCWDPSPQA
The test is described as follows: NMR titration; series of 1H-15N HSQC spectra, 100 μM 15N-labeled PDZ (wild type or phosphomimicking mutant) with increasing amounts of DVL_C peptide (stock 800 μM); proteins stored in 20 mM Hepes (pH 6.8), 50 mM KCl; 700 MHz; qualitative analysis. As to conditions: both partners purified.

B1: DVL3_C peptide 698–716 with phosphorylated S700 (peptide, UniProt Q92997 698-716, looked up)
peptide: RQ[pS]FRMAMGNPSEFFVDVM
notes: Dishevelled 3 (DVL3), human, C-terminal residues 698-716; also called DVL3 C-terminal peptide; source: bought: KareBay Biochem, Inc. (New Jersey, USA)
Take B1: the binding result was “binds”.
